Assay results published in paper PMC2900198.

Experiments:
[1] = target: Grass carp reovirus (GCRV) coat protein VP5 (grass carp reovirus (GCRV)); assay: cryo-EM structure
[2] = target: Grass carp reovirus (GCRV) turret protein VP1 (grass carp reovirus (GCRV)); assay: cryo-EM structure

Work on “Grass carp reovirus (GCRV) coat protein VP5 (natural protein)” yielded a stoichiometry N [1] of 3.

“Grass carp reovirus (GCRV) turret protein VP1 (natural protein)” gave a stoichiometry N [2] of 5.
